The values that follow come from US9549967B2, “Regulation of sodium channels by PLUNC proteins” (The University of North Carolina at Chapel Hill, priority 2009, dated 2017).

This experiment deals with T1, ENaC containing the βS518C mutant (Rattus norvegicus, UniProt P37089+P37090+P37091, S518C).
T1 construct: expressed in transfected cells; host or cells: Xenopus oocytes
T1 sequence (P37089 1-698): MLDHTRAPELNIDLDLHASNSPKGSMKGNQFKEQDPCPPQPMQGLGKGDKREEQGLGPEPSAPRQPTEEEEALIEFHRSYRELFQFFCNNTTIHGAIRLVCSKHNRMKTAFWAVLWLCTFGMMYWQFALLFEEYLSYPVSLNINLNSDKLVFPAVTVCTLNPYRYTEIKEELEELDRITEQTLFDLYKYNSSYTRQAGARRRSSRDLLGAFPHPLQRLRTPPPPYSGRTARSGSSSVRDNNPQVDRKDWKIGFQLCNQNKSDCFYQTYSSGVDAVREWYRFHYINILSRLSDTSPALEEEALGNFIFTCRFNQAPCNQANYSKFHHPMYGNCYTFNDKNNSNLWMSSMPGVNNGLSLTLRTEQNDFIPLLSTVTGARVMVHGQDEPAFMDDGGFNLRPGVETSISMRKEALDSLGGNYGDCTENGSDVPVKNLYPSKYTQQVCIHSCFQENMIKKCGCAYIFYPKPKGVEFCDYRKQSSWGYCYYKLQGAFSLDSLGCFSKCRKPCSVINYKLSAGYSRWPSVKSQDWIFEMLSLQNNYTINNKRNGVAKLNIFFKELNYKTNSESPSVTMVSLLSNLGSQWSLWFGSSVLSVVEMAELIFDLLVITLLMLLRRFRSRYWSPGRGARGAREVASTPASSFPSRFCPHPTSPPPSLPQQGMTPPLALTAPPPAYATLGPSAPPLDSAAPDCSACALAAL
T1 sequence (P37090 1-638 S518C): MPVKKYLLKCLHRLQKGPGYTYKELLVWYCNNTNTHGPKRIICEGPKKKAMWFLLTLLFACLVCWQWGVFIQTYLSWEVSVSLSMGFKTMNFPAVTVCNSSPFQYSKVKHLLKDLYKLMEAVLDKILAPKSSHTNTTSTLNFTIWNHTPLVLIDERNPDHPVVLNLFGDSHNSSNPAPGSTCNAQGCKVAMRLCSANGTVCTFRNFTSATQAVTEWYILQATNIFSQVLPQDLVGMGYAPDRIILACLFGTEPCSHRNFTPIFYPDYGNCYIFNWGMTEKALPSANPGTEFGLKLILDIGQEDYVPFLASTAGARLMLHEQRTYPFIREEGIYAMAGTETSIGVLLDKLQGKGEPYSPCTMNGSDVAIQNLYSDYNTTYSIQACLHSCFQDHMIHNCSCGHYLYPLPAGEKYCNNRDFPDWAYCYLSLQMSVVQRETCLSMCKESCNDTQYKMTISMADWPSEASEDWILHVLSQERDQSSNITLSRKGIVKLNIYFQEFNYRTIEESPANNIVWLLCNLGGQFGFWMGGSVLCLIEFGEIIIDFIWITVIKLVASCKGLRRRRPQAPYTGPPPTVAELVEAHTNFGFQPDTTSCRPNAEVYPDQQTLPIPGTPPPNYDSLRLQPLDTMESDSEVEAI
T1 sequence (P37091 1-650): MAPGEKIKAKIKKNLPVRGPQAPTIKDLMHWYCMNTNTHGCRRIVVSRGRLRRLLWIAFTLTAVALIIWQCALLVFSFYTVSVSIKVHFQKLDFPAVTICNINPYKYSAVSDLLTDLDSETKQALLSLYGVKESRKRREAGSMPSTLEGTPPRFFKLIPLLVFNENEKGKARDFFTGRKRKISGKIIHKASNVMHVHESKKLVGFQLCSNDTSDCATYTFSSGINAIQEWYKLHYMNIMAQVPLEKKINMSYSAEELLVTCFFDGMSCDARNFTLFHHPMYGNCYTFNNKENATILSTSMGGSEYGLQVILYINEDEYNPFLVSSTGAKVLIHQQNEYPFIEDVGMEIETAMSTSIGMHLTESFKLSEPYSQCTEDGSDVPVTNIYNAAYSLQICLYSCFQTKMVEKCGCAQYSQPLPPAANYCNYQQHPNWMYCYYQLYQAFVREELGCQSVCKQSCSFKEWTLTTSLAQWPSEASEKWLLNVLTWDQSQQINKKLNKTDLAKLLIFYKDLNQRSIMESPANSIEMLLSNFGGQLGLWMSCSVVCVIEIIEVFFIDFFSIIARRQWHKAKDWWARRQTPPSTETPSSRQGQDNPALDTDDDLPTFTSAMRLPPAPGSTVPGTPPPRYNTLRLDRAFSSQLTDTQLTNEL
Briefly: Oocyte current of ENaC containing the βS518C mutant with MTSET. The settings on record: SPLUNC1 coexpression, n=6. Format: cell-based. The protocol:
Oocyte studies. Xenopus laevis oocytes were harvested and injected as described (Donaldson, et al., J. Biol. Chem. 277:8338 (2002)). Defolliculated healthy stage V-VI oocytes were injected with 0.3 ng of cRNA of each ENaC subunit. Injected oocytes were kept in modified Barth's saline (in mM: 88 NaCl, 1 KCl, 2.4 NaHCO3, 0.3 Ca(NO3)2, 0.41 CaCl2, 0.82 MgSO4, and 15 HEPES, adjusted to pH 7.35 with Tris). Oocytes were studied 24 hr after injection using the two electrode voltage clamp technique as previously described (Donaldson, et al., J. Biol. Chem. 277:8338 (2002)). Oocytes were clamped at a holding potential of […]. The change in amiloride-sensitive whole cell current as an indicator of ENaC activity was determined by subtracting the corresponding current value measured in the presence of 10 μM amiloride from that measured before the application of amiloride.
The effect of SPLUNC1 on the number of ENaC channels in the plasma membrane was tested by expressing SPLUNC1 and αENaC in Xenopus oocytes. After surface biotinylation of αENaC, total lysate was prepared and lysate from 3-4 eggs was separated on a 10% gel.

B1: SPLUNC1: human SPLUNC1, 256 amino acid secreted PLUNC protein (SEQ ID NO:1); rSPLUNC1 = V5/6His-tagged protein purified from HEK293 media (protein, listed as Homo sapiens)
chain: MFQTGGLIVFYGLLAQTMAQFGGLPVPLDQTLPLNVNPALPLSPTGLAGSLTNALSNGLLSGGLLGILENLPLLDILKPGGGTSGGLLGGLLGKVTSVIPGLNNIIDIKVTDPQLLELGLVQSPDGHRLYVTIPLGIKLQVNTPLVGASLLRLAVKLDITAEILAVRDKQERIHLVLGDCTHSPGSLQISLLDGLGPLPIQGLLDSLTGILNKVLPELVQGNVCPLVNEVLRGLDITLVHDIVNMLIHGLQFVIKV
modifications: V5/6His tag
notes: rSPLUNC1 = V5/6His-tagged protein purified from HEK293 media
In the case of B1, the “overall current with MTSET” value was “still reduced”.
